Experimental data published in US20250154215A1, “PHARMACEUTICAL COMPOSITION FOR TREATING COLITIS OR COLORECTAL CANCER COMPRISING COLON-TARGETED S100A8/A9-DERIVED SPECIFIC PEPTIDE” (Industry-University Cooperation Foundation Hanyang …, priority 2023, published 2025).
Entries after “also recorded” stand apart in the source; their conditions may differ.

Tests used:
[1] = DSS-induced acute colitis mouse model; format: in vivo, mice
Method: (§1) DSS-induced acute or chronic colitis and AOM/DSS CRC mouse models were prepared using 6-week-old C57BL/6 female mice (Samtako Bio, Osan, Korea). To assess the induction of acute colitis, mice were exposed ad libitum to 3% (w/v) dextran sodium sulfate (molecular weight: 36-50 kDa, MP Biomedicals, Santa Ana, CA, USA) dissolved in drinking water. The mouse models are illustrated in FIGS. 7A, 5E, and 6A. DSS solutions were prepared every two days. […] The humane endpoint for weight loss (requiring euthanasia) was 20% (compared to the original body weight of an animal). Without an approved exception request, body weight loss could not exceed 20%.
The clinical score of colitis was obtained by measuring body weight, fecal occult blood or total blood loss, and stool consistency every other day during the induction of colitis. The clinical score were assessed by two trained investigators who were randomly selected. For immunohistochemical analysis of tissue sections, mouse distal colon tissues were fixed in 10% formalin and embedded in paraffin. Paraffin sections ([…]) were cut and stained with H&E. Histopathological scoring was performed by a certified pathologist (Min-Kyung Kim, Department of Pathology, Kim Min-Kyung Pathology Clinic, Seoul, Korea) who scored each organ section independently without prior knowledge of the treatment group.
The therapeutic efficacy of rCT-S100A8/A9 on DSS-induced acute colitis in mice was evaluated. After colitis was induced by DSS, the mice were intraperitoneally injected with rCT-S100A8/A9 (50 μg/kg) once daily for 6, 7, or 8 days, and sacrificed on day 12 to evaluate the effect of treatment frequency (FIG. 7A, top). […] Next, the length of the colon, which is an indicator of colitis, was evaluated.

[2] = AOM/DSS-induced colitis-associated colorectal cancer (CAC) mouse model; format: in vivo, mice
From the text: Weight of mice compared to baseline during AOM/DSS administration. In this experiment, weight loss is a surrogate indicator of colitis severity. Data is representative of two independent experiments with similar results. […] Note the higher tumor burden in the distal colon/rectum and the characteristic wrinkled texture of the proximal colon with little tumor growth. […] Most tumors are located in the distal colon, and their sizes are less than 2 mm. Data is shown as the mean±SD of six experiments. […] H&E and β-catenin stained slides show dysplastic changes similar to human colonic adenocarcinoma;
as §1
AOM/DSS-treated mice were administered rCT-S100A8/A9 four times according to the administration frequency during three DSS cycles until week 10 (FIG. 9A, top). […] Tumor induction by AOM/DSS treatment was mainly observed in the distal colon and produced colonic shortening in the CAC mouse model.

[3] = vs rVehicle or rCT-treated group

B1: TWYKIAFQRNRKTWYKIAFQRNRKTWYKIAFQRNRKTWYKIAFQRNRKTWYKIAFQRNRKGGFLVIKGGAHKSHKGGITIITFGGGHHGGFLVIKGGAHKSHKGGITIITFGGGHHGGFLVIKGGAHKSHKGGITIITFGGGHHGG (protein)
chain: TWYKIAFQRNRKTWYKIAFQRNRKTWYKIAFQRNRKTWYKIAFQRNRKTWYKIAFQRNRKGGFLVIKGGAHKSHKGGITIITFGGGHHGGFLVIKGGAHKSHKGGITIITFGGGHHGGFLVIKGGAHKSHKGGITIITFGGGHHGG
modifications: N-terminal 6xHis tag
- survival rate ([1]; 50 μg/kg i.p. once daily, 3% DSS): significantly increased
- colon damage (H&E staining) ([1]; 3% DSS acute colitis): reduced according to the frequency of rCT-S100A8/A9 treatment; also recorded: alleviated
- colon length ([1]; 3% DSS acute colitis): recovered in proportion to the number of rCT-S100A8/A9 treatments
- levels of pro-inflammatory cytokines (TNF-α, IL-1β, IL-6, IL-18) and MPO activity in colonic homogenates ([1]; DSS colitis): significantly reduced; also recorded: successfully reduced the secretion of IL-1β and IL-18
- TLR4 (or RAGE)-S100A8 (or S100A9) and NLRP3-ASC interactions in colon ([1]; colon co-IP, DSS treatment): decreased
- body weight loss [1, 3]: less body weight loss
- colitis scores [1, 3]: lower colitis scores
- colonic length ([2]; AOM/DSS): restored
- histological colonic damage (H&E) ([2]; AOM/DSS): significant alleviation; also recorded: significantly alleviated
- tumor burden in the distal colon ([2]; AOM/DSS): decreased
- β-catenin protein levels in colon (immunohistochemistry) ([2]; AOM/DSS): effectively suppressed
- body weight gain ([2]; AOM/DSS, three DSS cycles until week 10): higher weight gain rate according to the treatment frequency; also recorded: increased
- epithelial-to-mesenchymal transition (profiler PCR array) ([2]; CRC colon tissues): regulated
- number of tumors less than 2 mm ([2]; treatment for three consecutive days): significantly reduced
